Where “and” joins values, the source holds several entries; their conditions need not be identical. Identical values can stand only once.

Test [1] addresses T1, YbATP-grasp (Yersinia bercovieri, UniProt A0ABP2E091).
T1 construct: gene yberc0001_40; N-terminally His-tagged (pQLinkH), E. coli ER2566 host; 780 kDa, 14-mer by sedimentation equilibrium; gene from the four-gene Anbu operon (ATP-grasp, alphaE, transglutaminase, Anbu)
T1 sequence (A0ABP2E091 1-478): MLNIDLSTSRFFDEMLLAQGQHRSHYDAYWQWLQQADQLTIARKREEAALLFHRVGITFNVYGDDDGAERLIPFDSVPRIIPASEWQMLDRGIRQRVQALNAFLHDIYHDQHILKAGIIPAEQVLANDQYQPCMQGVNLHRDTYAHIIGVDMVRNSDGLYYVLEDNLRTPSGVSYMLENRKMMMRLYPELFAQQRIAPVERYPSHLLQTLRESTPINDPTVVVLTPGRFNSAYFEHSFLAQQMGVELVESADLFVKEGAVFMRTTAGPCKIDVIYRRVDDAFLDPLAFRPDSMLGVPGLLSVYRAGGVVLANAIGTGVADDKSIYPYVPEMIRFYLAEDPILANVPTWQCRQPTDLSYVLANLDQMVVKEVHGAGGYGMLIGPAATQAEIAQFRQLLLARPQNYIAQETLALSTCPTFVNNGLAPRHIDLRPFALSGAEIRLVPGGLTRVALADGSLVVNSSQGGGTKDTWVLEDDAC
The experiment in a line: […]-orthophosphate release, thin-layer chromatography and autoradiography. Format: biochemical. Particulars: 50 mM Tris pH 7.5, 150 mM KCl, 5 mM MgCl2, 1 mM ATP, RT; labelled compound.

In test [2] the target is T1, YbATP-grasp. The test can be described thus: differential scanning fluorimetry (thermofluor). In kind it is binding. Particulars: strong destabilization in presence of ATP; shift size not given. Background: In DSF a fluorescence change marks the thermal transition of the protein.
Test [3] concerns the target Yersinia bercovieri Anbu (ancestral beta subunit), V14A/G107H variant (Yersinia bercovieri). The experiment in a line: AUC; sedimentation velocity, 40,000 rpm, 20 °C, buffer D, continuous c(s) distribution model (SEDFIT).
Test [4] has the same target. The test can be described thus: AUC; sedimentation equilibrium of YbAnbu at 4000, 7000 and 9000 rpm, buffer B in the reference sector, global fit (SEDPHAT).
Test [5] shares this target. The experiment in a line: SEC; Superose 6 30/100 column, 0.5 ml/min, buffer D (50 mM Tris pH 7.5, 300 NaCl, 1 mM EDTA); calibrated with BioRad standards, yeast 20S and EcHslV. (Size exclusion chromatography separates by hydrodynamic size, large species first.)
For test [6] the target is unchanged. The test can be described thus: crystal structure; sitting drop vapor diffusion, 100 mM BIS-TRIS propane/HCl pH 6.7-7.1, 200 mM Na2SO4, 18% PEG 3350, 7.5% ethylene glycol; space group P21, 2.5 Å, two 14-mers in the asymmetric unit.
The target of test [7] is ATP-grasp protein encoded in the Y. bercovieri Anbu operon, N-terminally His-tagged (Yersinia bercovieri). The test can be described thus: AUC; sedimentation equilibrium of YbATP-grasp at 4000, 7000 and 9000 rpm, buffer D in the reference sector, global fit (SEDPHAT).

For the compound `Nc1ncnc2c1ncn2[C@@H]1O[C@H](COP(=O)(O)OP(=O)(O)OP(=O)(O)O)[C@@H](O)[C@H]1O` [ATP], in test [1], the “32P-orthophosphate release, thin-layer chromatography and autoradiography” value is on record as “The YbATP-grasp protein led to robust production of orthophosphate”. For the same compound, the “differential scanning fluorimetry (thermofluor)” value in test [2] is given as “indicated strong destabilization of YbATP-grasp in the presence of ATP, but not ADP”.

For the compound “Yersinia bercovieri Anbu (ancestral beta subunit), V14A/G107H variant (natural protein)”, the stoichiometry N – broadly, the number of molecules, sites or subunits per partner or assembly – in test [3] is 12; in test [4], 14; in test [5] it was 9 and 5 and 14; in test [6] it was 14.

In turn, “ATP-grasp protein encoded in the Y. bercovieri Anbu operon, N-terminally His-tagged (natural protein)” displayed a stoichiometry N in test [7] of 14.

The record behind these values is article PMC6376114, “The Y. bercovieri Anbu crystal structure sheds light on the evolution of highly (pseudo)symmetric multimers” (Journal of molecular biology, 2017).
